Assays:
CEACAM1-dN-Fc = molecular target: T1, CEACAM1-dN-Fc (human, UniProt P13688 143-428, limits assumed); assay: solid phase ELISA, CEACAM-Fc coated (FIG. 19)
T1 construct: Human CEACAM1 extracellular part without the N domain, fused to Fc; also called CEACAM1 variant lacking the N domain; not shown: human IgG Fc

[1] = molecular target: T2, peptide P-Q-Q-L-F-G-Y-S-W-Y (human); assay: solid phase peptide ELISA, mAb 5 µg/ml (FIG. 20)
T2 construct: coated on the ELISA plate
T2 peptide: PQQLFGYSWY
Procedure: After three times washing with PBS, samples were incubated with goat anti mouse-HRP (Jackson ImmunoResearch, 1:10.000 dilution in 1% BSA/PBS, 100 µl/well). Then plates were washed three times with PBS, developed with 100 µl TMB substrate, blocked with 100 µl 0.2 M H2SO4 and measured by the TECAN-ELISA reader sunrise at 450 nm. Samples were run in triplicates. Results shown are representative for three independent repeats.

human CEACAM1 = molecular target: T3, human CEACAM1 (human, UniProt P13688 35-526); assay: flow cytometry on CHO transfectants
T3 construct: Expressed on CHO transfectants; also called huCEACAM1; CHO-CEACAM1
T3 sequence: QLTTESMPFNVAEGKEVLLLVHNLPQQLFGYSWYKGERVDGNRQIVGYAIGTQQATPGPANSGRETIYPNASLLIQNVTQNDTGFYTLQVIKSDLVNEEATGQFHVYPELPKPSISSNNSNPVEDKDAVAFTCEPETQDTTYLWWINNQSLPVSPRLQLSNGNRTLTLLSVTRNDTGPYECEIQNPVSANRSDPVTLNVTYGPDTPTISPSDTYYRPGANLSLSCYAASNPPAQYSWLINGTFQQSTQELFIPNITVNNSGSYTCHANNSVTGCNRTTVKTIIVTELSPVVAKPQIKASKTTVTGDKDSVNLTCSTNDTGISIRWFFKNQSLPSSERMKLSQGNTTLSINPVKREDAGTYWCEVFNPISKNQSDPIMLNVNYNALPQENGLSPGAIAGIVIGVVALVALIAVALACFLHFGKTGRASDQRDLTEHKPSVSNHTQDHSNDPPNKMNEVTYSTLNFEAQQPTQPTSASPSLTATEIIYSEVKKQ
Procedure: (§1) After washing, FITC-labeled secondary goat anti mouse antibody was applied. Cell surface binding was analyzed utilizing a FACScalibur flow cytometer (Becton Dickinson).

human CEACAM3 = molecular target: T4, human CEACAM3 (human, UniProt P40198 35-252); assay: flow cytometry on CHO transfectants
T4 construct: whole, on cells; also called huCEACAM3; CHO transfectants expressing human CEACAM3
T4 sequence (looked up): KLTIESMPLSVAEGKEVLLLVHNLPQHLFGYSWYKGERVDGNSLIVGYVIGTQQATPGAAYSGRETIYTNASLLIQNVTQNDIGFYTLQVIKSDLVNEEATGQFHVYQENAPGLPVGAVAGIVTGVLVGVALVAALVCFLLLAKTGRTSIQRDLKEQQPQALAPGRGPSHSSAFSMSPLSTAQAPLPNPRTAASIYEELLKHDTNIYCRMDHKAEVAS
Procedure: as §1

human CEACAM3-Fc = molecular target: T5, human CEACAM3-Fc (human, UniProt P40198 35-155, limits assumed); assay: solid phase ELISA, CEACAM-Fc coated, mAb 5 µg/ml (FIG. 19)
T5 construct: also called recombinant CEACAM-Fc protein; not shown: human IgG Fc
T5 sequence (looked up): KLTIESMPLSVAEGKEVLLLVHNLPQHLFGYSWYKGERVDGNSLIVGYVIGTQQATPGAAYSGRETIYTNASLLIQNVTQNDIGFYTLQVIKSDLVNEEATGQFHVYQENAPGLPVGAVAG

human CEACAM5-Fc = molecular target: T6, human CEACAM5-Fc (human, UniProt P06731 35-685, limits assumed); assay: as above
T6 construct: also called recombinant CEACAM-Fc protein; not shown: human IgG Fc
T6 sequence (looked up): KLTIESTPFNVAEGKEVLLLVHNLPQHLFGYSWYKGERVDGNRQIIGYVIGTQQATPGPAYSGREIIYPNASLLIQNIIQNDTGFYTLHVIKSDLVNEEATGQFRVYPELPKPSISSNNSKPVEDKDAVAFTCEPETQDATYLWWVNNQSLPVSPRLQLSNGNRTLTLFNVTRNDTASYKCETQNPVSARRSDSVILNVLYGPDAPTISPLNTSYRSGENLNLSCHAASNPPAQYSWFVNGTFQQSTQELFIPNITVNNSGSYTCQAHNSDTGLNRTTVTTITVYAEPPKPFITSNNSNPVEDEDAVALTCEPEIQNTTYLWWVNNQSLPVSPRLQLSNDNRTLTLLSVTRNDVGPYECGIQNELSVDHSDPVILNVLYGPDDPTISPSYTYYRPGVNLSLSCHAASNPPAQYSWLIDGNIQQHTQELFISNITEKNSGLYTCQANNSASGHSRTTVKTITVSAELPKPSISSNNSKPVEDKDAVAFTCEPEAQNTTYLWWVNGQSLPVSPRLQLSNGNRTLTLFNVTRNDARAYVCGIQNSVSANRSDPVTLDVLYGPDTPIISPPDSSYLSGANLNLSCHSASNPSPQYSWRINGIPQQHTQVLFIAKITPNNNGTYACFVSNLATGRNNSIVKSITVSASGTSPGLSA

[2] = molecular target: T7, human CEACAM1-Fc fusion protein (human, UniProt P13688 35-428); assay: as above
T7 construct: Said to comprise the entire extracellular domain of human CEACAM1; also called CEACAM1-huFc; recombinant CEACAM1-Fc; not shown: human IgG Fc (huFc)
T7 sequence: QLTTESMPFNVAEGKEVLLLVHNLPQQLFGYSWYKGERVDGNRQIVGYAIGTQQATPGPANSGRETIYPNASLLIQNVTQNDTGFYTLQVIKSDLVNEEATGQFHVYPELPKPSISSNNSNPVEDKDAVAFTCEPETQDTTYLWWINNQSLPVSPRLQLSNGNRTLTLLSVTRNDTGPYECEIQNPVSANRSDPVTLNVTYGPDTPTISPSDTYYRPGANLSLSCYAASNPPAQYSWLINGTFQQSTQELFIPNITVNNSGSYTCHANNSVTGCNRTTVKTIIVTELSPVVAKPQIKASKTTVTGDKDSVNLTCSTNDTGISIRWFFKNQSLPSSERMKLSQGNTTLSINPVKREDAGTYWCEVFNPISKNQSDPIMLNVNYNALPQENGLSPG

human CEACAM8-Fc = molecular target: T8, human CEACAM8-Fc (human, UniProt P31997 35-320, limits assumed); assay: sandwich ELISA, CC1/3/5-Sab coated, CEACAM-Fc proteins in solution
T8 construct: also called recombinant CEACAM-Fc protein; not shown: human IgG Fc
T8 sequence (looked up): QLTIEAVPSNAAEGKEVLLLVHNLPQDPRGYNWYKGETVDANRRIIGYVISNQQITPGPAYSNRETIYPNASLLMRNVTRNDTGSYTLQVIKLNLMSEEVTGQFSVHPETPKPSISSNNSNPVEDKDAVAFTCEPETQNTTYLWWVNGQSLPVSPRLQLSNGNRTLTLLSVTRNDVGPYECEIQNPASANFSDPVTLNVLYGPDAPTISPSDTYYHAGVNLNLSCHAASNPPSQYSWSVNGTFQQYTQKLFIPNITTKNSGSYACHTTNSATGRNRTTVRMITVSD

human CEACAM6-Fc = molecular target: T9, human CEACAM6-Fc (human, UniProt P40199 35-320, limits assumed); assay: as above
T9 construct: also called recombinant CEACAM-Fc protein; not shown: human IgG Fc
T9 sequence (looked up): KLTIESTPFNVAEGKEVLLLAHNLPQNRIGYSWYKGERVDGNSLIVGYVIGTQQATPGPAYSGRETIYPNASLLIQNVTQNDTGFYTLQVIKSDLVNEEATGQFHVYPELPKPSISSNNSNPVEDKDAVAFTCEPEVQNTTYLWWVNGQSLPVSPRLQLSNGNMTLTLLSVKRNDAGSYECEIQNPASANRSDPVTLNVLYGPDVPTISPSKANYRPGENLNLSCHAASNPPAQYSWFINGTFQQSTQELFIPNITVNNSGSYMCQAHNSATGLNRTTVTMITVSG

B1: CC1/3/5-Sab (antibody, V domains shown)
VH: EVQLQQSGPELVKPGTSVKMSCKASGYTFTTYVMHWVQQKPGQGLDWIGFFNPYNDGTKYNEKFKGKATLTSDKSSSTAYMELSSLTSEDSAVYYCARWAYDGSYAYWGQGTTLTVSS
VL: DIQMTQSSSYLSVFLGGRVTITCKASDHINNWLAWYQQKPGNAPRLLISGATSLETGVPSRFSGSGSGKDYTLSIISLQTEDVATYYCQQYWRTPFTFGSGTKLEIK
notes: also called mAb CC1/3/5-Sab; CC1/3/4-Sab
CEACAM1-dN-Fc
  binding result: no binding (tested: 5 µg/ml)
[1]
  binding result: binds
Human CEACAM1
  binding result: binds
Human CEACAM3
  binding result: binds
Human CEACAM3-Fc
  binding result: binds
Human CEACAM5-Fc
  binding result: binds
[2]
  binding result: binds
Human CEACAM8-Fc
  binding result: no binding (tested: 0.1 µg/ml CEACAM-Fc)
Human CEACAM6-Fc
  binding result: no binding (tested: 0.1 µg/ml CEACAM-Fc)

Reference: patent publication US20230295338A1 (YMMUNOBIO, published 2023)
